In the RNAGym collection of RNA variant scans (doi:10.1073/pnas.2313332121):

B1: TPR t1 (parent)
chain: GACCAAUCUGCCCUCAGAGCUCGAGAACAUCUUCGGAUGCAGAGGAGGCAGGCUUCGGUGGCGCGAUAGCGCCAACGUCCUCAACCUCCAAUGCAUCCCACCACAUGAUGAUGCCUGAAGAGCCUUGGUUUUUUG

Variants of: B1
Test: polymerase ribozyme fitness, log enrichment relative to wild type (log ratio); higher = more active; in vitro selection for triplet polymerase activity
Method in brief: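 Frozen incubation at −7 °C formed the core of a single, triplicate in vitro selection round applied to PCR-built, transcribed mutant libraries of each subunit of a heterodimeric triplet polymerase ribozyme. Extended constructs were gel-excised, captured with streptavidin beads and amplified by RT-PCR, and input and output libraries were Illumina-sequenced with a filter of ≥10 input reads and ≥1 read per output. Fitness is the logarithm of genotype enrichment relative to wild-type enrichment, with inverse-variance-weighted replicate averaging, and the logarithm is base 2.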

In order of rising “polymerase ribozyme fitness (log ratio)” value:
1. A91U U109A  -8.07
2. C94U A108U C114U U131G  -7.59
3. C101U A103U G113U  -7.03
4. U96A C99G G110C  -6.97
5. U92G U109A C124A U131A  -6.86
6. C99G A121U  -6.54
7. U92A A108U U112C G113A A121G  -6.52
8. C102U A111U U129C  -6.46
9. C94U G117C U130A  -6.35
10. C99U C102G  -6.32
11. C98A C124G G128A U133G  -6.31
12. C98A C114U  -6.3
13. U92A G110C  -6.13
14. C97U A103U G113C C115A U116A  -6.04
15. G93A G117C U130G  -5.98
16. U92A U109G  -5.94
17. A105U G113U  -5.9
18. A103G G110A  -5.82
19. C98G  -5.78
20. A95G U109C  -5.61
21. C102G A111C A118C U129C  -5.54
22. A103U G113A U116A A121U  -5.45
23. C98U C102A  -5.43
24. C99U G110U A121G  -5.37
25. A91G C97A A118U  -5.26
26. C102G U112A C123U G127A  -5.25
27. C98A  -5.14
28. U96A G117C  -5.1
29. C98U C102A A111G A121G G122A  -5.08
30. U92A G110A  -5.07
31. C102A G113C U126C  -4.92
32. A108C C124G  -4.87
33. A105C G113U  -4.85
34. C97A U129A  -4.83
35. C98G G120A  -4.76
36. G93C G117C  -4.74
37. U106A U109G A111U  -4.71
38. A105G G117A  -4.69
39. G107C G120C U130A  -4.61
40. G107A U109A A119G  -4.55
41. A95C U109A U112C  -4.49
42. A103C U133G  -4.45
43. A103G G117A  -4.42
44. U109A G110A  -4.3
45. C102U G110U  -4.26
46. G107A C114A  -4.24
47. C98A G120C  -4.15
48. A103G G113A  -4.15
49. C97U C101U U116G A118G  -4.15
50. U109G G110A  -3.89
51. G93A G117C  -3.87
52. A103G G110U  -3.83
53. A91G A100C A111U A121G  -3.81
54. U106G U125G  -3.81
55. U109C A121U  -3.68
56. C101A G110A C123A  -3.51
57. C98U C114A  -3.47
58. C102A G127A  -3.45
59. A95G C114G  -3.45
60. U92A U116C  -3.44
61. U96A C114U  -3.4
62. G93C G110U G120A  -3.34
63. C101G C114U  -3.32
64. G107U A119U A121C  -3.29
65. G107A G120C  -3.25
66. U92A C123A  -3.22
67. C99U G122U  -3.2
68. U109G A119G G135C  -3.19
69. G93A G122A U125G  -3.18
70. C102A A111C G120C  -3.12
71. C104A A111U  -3.1
72. A103G C114U  -3
73. A103C C123G  -2.94
74. A100U C115U  -2.94
75. C97A C124A  -2.9
76. G93A G113U C114G  -2.9
77. U96G C102U  -2.86
78. U106C G113C  -2.72
79. A100U U126G G135U  -2.69
80. A100U G110U  -2.67
81. C102U C114G C124G  -2.64
82. U96A G110U  -2.56
83. C102A U109G  -2.56
84. A105U G120U  -2.54
85. A91U U112A G117C C123U U134A  -2.54
86. G93U C115A  -2.49
87. C99U A118G  -2.48
88. C104A U125G  -2.44
89. C102A A118G  -2.42
90. C98U U129G  -2.41
91. G93A C115G  -2.4
92. C101G G120A G122C  -2.36
93. A91C A118G  -2.33
94. U96G C114U  -2.28
95. A105C  -2.22
96. C94A A105U A121C  -2.21
97. C94A G110A  -2.19
98. C101U G128A  -2.16
99. C94U G113U  -2.09
100. U92A A119G G127C  -2.05
101. U106C U116G  -2.03
102. C104A G135U  -2.01
103. G93C U129A  -1.91
104. C94G U131G U132G  -1.88
105. U106G C114U  -1.86
106. A91U  -1.81
107. A95C G113C C124G  -1.76
108. A91U U96G G120U  -1.75
109. A105G  -1.71
110. C94U G128U  -1.7
111. A105U  -1.69
112. C94A G135U  -1.66
113. C94A G120C  -1.64
114. G93U C115U  -1.63
115. G93U U112G  -1.63
116. C101U U129A  -1.62
117. U106A G117A  -1.55
118. C104U A111U A119G  -1.53
119. A100C G122A  -1.49
120. C101G G135C  -1.41
121. A91C  -1.4
122. A100C G120A G122A  -1.28
123. C102U G122U  -1.26
124. A90U U116C  -1.26
125. U106G U112G  -1.25
126. A95U C115A  -1.22
127. C98U  -1.2
128. G93C G135C  -1.15
129. C99U C123G  -1.13
130. C102U G120U  -0.992
131. C101U U125A  -0.975
132. U96G A100U C104U  -0.962
133. G93C U112G  -0.938
134. C102U C124U  -0.914
135. A100C U130G  -0.881
136. A100C C123A  -0.801
137. G93U U133A  -0.793
138. C98U G135C  -0.757
139. C94A A111U  -0.728
140. A90G C101A C123A  -0.711
141. U106G G120C  -0.678
142. A105G C124U  -0.654
143. U106A U132A  -0.65
144. U92A C123G  -0.636
145. A91G  -0.586
146. A100C G120U U125C  -0.56
147. U96C C123G G127C  -0.432
148. U96A C104U U132A  -0.322
149. G93C C123G  -0.285
150. C101G A121U  -0.28
151. A90U G93A U112C  -0.194
152. C97U U112G  -0.123
153. C104A C123U  -0.0302
154. G93U G120A U125A  0.0882
155. C101U U129G U130C  0.135
156. U92C C123G  0.159
157. C94A C123U  0.185
158. G93A C123A  0.264
159. U106A G120A  0.348
160. G93A C98U C124G  0.653
161. G93U C124G  0.697
162. U106A G120C U130G  0.744
163. A105U U106G G120C  0.766
164. C104U U112C  0.772
165. C104U C124U  0.788
166. A95G U112C C124U  1.01
167. G93C A121U U133G  1.15
